This note sets out measurements from doi:10.1101/2022.07.21.500812 (bioRxiv, 2022).

The target in this experiment is human GPC3 residues 32-483 (hGPC3^core) (human, UniProt P51654 32-483, N-linked glycans at N124 and N241). The experiment can be described thus: SPR. For orientation: SPR reads the build-up and loss of mass on a sensor chip optically.
Sequence of human GPC3 residues 32-483 (hGPC3^core) (P51654 32-483): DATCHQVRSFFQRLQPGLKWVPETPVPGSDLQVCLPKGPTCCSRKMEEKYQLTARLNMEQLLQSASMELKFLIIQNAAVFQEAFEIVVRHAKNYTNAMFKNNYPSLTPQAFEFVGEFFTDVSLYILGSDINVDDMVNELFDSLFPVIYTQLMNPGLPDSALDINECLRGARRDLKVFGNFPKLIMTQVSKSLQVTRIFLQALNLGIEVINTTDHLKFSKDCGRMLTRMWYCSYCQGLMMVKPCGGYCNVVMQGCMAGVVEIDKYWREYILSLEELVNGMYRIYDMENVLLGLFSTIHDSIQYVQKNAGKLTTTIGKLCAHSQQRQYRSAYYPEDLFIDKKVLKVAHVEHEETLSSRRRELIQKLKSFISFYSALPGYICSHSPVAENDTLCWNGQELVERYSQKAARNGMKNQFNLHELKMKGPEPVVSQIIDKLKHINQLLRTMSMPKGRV

B1: mouse Unc5A ectodomain (mUnc5A^ecto, residues 1-359) (domain or fragment)
chain: not shown
B1: the binding result was “binds”.
